# Patent publication US20030233681, “ICE1, a regulator of cold induced transcriptome and freezing tolerance in plants” (Arizona Bd of Regents/Behalf of Univ. of Arizona, published 2003)
# Substitutions are numbered along the chain they refer to.
# T1: ICE1 (Arabidopsis thaliana, UniProt Q9LSE2 SEQ:1-494)
# T1 sequence: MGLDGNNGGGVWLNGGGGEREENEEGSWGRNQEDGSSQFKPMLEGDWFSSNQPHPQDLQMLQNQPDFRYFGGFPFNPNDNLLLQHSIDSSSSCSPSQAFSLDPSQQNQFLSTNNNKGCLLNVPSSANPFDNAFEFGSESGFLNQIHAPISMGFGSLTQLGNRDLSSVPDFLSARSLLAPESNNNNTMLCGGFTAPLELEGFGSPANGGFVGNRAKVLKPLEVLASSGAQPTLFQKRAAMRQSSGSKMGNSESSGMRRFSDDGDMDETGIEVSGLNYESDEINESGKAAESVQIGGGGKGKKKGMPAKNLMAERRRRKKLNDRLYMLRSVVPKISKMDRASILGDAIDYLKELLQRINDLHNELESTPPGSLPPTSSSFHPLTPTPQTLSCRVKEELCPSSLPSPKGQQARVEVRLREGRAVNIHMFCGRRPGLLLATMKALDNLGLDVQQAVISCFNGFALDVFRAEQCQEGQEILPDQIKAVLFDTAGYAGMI
# T2: ice1 (R236H) (Arabidopsis thaliana, UniProt Q9LSE2 SEQ:1-494, R236H)
# T2 sequence: T1 sequence with R236H
# B1: MYC-1 (dsDNA)
# DNA 1: CATTTTACAATTGCTTCGCT
# DNA 2: AGCGAAGCAATTGTAAAATG
# B2: P2 (-909 to -890) (dsDNA)
# DNA 1: GACTCGTTTCGCGATCCGAT
# DNA 2: ATCGGATCGCGAAACGAGTC
# B3: MYC-2 (dsDNA)
# DNA 1: CTCTGGACACATGGCAGATC
# DNA 2: GATCTGCCATGTGTCCAGAG
# B4: MYC-4 (dsDNA)
# DNA 1: ACAATTACAACTGCATGCTT
# DNA 2: AAGCATGCAGTTGTAATTGT
# B5: P1 (-949 to -930) (dsDNA)
# DNA 1: ATATAATTAACTACTTTTAT
# DNA 2: ATAAAAGTAGTTAATTATAT
# B6: MYC-3 (dsDNA)
# DNA 1: AATGTTACATTTGATCATTC
# DNA 2: GAATGATCAAATGTAACATT
# What was measured:
# ICE1 [1] = molecular target: T1, ICE1; assay: EMSA; several complexes; weaker competitor than MYC-2; details: tags: His tag N-terminal (pET14b, E. coli BL21 DE3); label: 32P
# Protocol: (§1) For competition experiments, unlabeled competitors were incubated with the His-ICE1 fusion protein on ice for 30 min prior to the addition of labeled probes.
# (§2) ICE1 has a basic helix-loop-helix (bHLH) domain and its amino acid sequence in the basic region is highly conserved with other bHLH proteins (FIG. 4B), and therefore may recognize promoter elements similar to the DNA-binding sites for known bHLH proteins. These proteins recognize DNA with the consensus sequence CANNTG (Meshi and Iwabuchi 1995). In the promoter region of CBF3, there are five potential MYC-recognition elements within a 1 kb region upstream of the transcription initiation site (Shinwari et al. 1998). These possible MYC-recognition sites, designated MYC-1 through MYC-5, fall into four groups because MYC-3 and MYC-5 share the same consensus sequence, CATTTG (FIG. 6A). Thus, MYC-3 was used to represent both MYC-3 and MYC-5. To determine whether ICE1 binds to these MYC-recognition sites in the CBF3 promoter, we expressed and purified His-ICE1 fusion protein from E. coli. Four DNA fragments encompassing each possible MYC-recognition site were used for interaction with His-ICE1 in an electrophoresis mobility shift assay (EMSA).
# (§3) The MYC-2 fragment formed one major complex with ICE1, while the other DNA fragments formed several complexes with ICE1. […]
# ICE1 [2] = molecular target: T1, ICE1; assay: competition; unlabeled non-related competitor does not compete; 50-250 fold excess; details: tags: His tag N-terminal (pET14b, E. coli BL21 DE3)
# Protocol: (§4) The wild type and mutant ICE1 cDNAs were amplified by RT-PCR and inserted into NdeI and BamHI sites in the expression vector pET14b (Novagen). Wild-type and mutant His-ICE1 fusion proteins were prepared from E. coli cells (BL21 DE3) according to the instruction manual of His-Bind Buffer Kit (Novagen). The electrophoresis mobility shift assay (EMSA) was carried out as described (Hao et al. 1998). The following double-stranded oligonucleotides listed in FIG. 6A (MYC-1, MYC-2, MYC-3, MYC-4 and MYC-5) were used as probes and competitors in EMSAs. Nucleotide sequences P1 (−949 to −930) and P2 (−909 to −890) were also used as competitors. P1 contains a putative MYB-recognition site. […] DNA probes were end-labeled with [γ-³²P]dCTP using the Klenow fragment and purified through a Sephadex G-50 column. The labeled probes (ca 0.02 pmol) were incubated for 20 min at room temperature with 2.3 μg of purified His-ICE1 fusion protein in 1×binding buffer (Hao et a.1998) supplemented with 20 pmol poly(dI-dC). The resulting DNA-protein complexes were resolved by electrophoresis on a 6% polyacrylamide gel in 0.5×TBE buffer and visualized by autoradiography. For competition experiments, unlabeled competitors were incubated with the His-ICE1 fusion protein on ice for 30 min prior to the addition of labeled probes. […]
# ICE1 [3] = molecular target: T1, ICE1; assay: EMSA; one major complex; strongest of the sites by competition; poly(dI-dC), room temperature 20 min; details: tags: His tag N-terminal (pET14b, E. coli BL21 DE3); label: 32P
# Protocol: as §4
# ice1 (R236H) = molecular target: T2, ice1 (R236H); assay: EMSA; R236H mutant still binds; details: tags: His tag N-terminal (pET14b, E. coli BL21 DE3); label: 32P
# Protocol: as §4
# ICE1 [4] = molecular target: T1, ICE1; assay: competition; unlabeled competitor with putative MYB site does not compete; 50-250 fold excess; details: tags: His tag N-terminal (pET14b, E. coli BL21 DE3)
# Protocol: as §4
# ICE1 [5] = molecular target: T1, ICE1; assay: EMSA; several complexes; weaker competitor than MYC-2; also represents MYC-5; details: tags: His tag N-terminal (pET14b, E. coli BL21 DE3); label: 32P
# Protocol: as §1, §2, §3
binder,measurement,setting,value
B1,binding result,ICE1 [1],binds
B2,binding result,ICE1 [2],no binding
B3,binding result,ICE1 [3],binds
same,binding result,ice1 (R236H),binds
B4,binding result,ICE1 [1],binds
B5,binding result,ICE1 [4],no binding
B6,binding result,ICE1 [5],binds
